Non-standard residues stand in square brackets, D forms with d. No end group written: not given here. *: point of attachment. Pmc = Cc1c(C)c(S(=O)(=O)*)c(C)c2c1OC(C)(C)CC2; 2Nal = N[C@@H](Cc1ccc2ccccc2c1)C(=O)O; Pen = CC(C)(S)[C@H](N)C(=O)O
What was measured:
αvβ5 = test: ELISA
[1] = molecular target: Platelet glycoprotein IIb/IIIa (human) (UniProt P08514); test: ELISA
[2] = molecular target: Platelet glycoprotein IIb/IIIa (human) (UniProt P08514); test: cell-based or functional assay
[3] = molecular target: Vitronectin receptor (human) (UniProt P06756); test: competition, ELISA or liposome assay, vitronectin coated

| IC50 (αvβ5) [µM] | Substance | also measured |
| --- | --- | --- |
| 10 | R(Pmc)GHRGD[2Nal]RCR |  |
|  | Ac(dPen)IPRGD(O-Me-Tyr)RC-NH2 | IC50 [1]: 0.002 µM |
| 10 | R(Pmc)G(DY)RGD(Y-OMe)RCR |  |
|  | analogue 18 (Asp for Gly at position -2 of R(Pmc)GHRGD(Y-OMe)RCR) (peptide) | fold decrease in potency relative to analogue 11 [2]: 4 fold |
| 2.34 | Ac-(Pmc)NPRGD(Y-OMe)RC-NH2 |  |
|  | G[Pen]GRGDRPCR (cysteine pairing not given here) | IC50 [3]: 0.01 µM |
| 3 | (Mpr)NPRGD(Y-OMe)RC-NH2 |  |
|  | R(Pmc)GHRGD(O-Me-Tyr)RCR (Table I, row r54) (peptide) | IC50, ADP-Stimulated Aggregation [2]: 0.44 µM |
| 15.3 | R(Pmc)GHRGD(p-Cl-F)RCR |  |
| 8.8 | R(Pmc)GYRGD(Y-OMe)RCR |  |
| 7.14 | Ac-CNPRGD(Y-OMe)LC-NH2 |  |
|  | R2(Pen)GRGDTPCA (peptide) | IC50, ADP-Stimulated Aggregation [2]: 8.2 µM; IC50, Thrombin Stimulated Aggregation [2]: 2.7 µM |

Reference: patent US6521594
